Assay results published in patent publication US20080299140A1, “Immunogenic Composition and Peptide Sequences for Prevention and Treatment of an Hsv Condition” (priority 2002, published 2008).
No end group written: not given here.

Biological target: HLA-DR(α1*0101,α1*1301) (human)
Experiment: reference IC50 of the tracer peptide in the HLA class II competition assay

TERVRLVTRHIYNREE (also: biotinylated when used as tracer) [B1 (21-36)]
IC50: 276 nM
